Measured values from patent US20160153985A1.

Experiments:
[1] = target: pure human iC3b (Complement Technology, A115) (human) (UniProt P01024); assay: sandwich ELISA, capture A209 (Example 5), goat anti-C3-HRP; TABLE 6 well A2, blocker
[2] = target: pure human iC3b (Complement Technology, A115) (human) (UniProt P01024); assay: sandwich ELISA, capture A209 (Example 5), goat anti-C3-HRP; TABLE 6 well A8, blocker
[3] = target: pure human iC3b (Complement Technology, A115) (human) (UniProt P01024); assay: sandwich ELISA, capture A209 (Example 5), goat anti-C3-HRP; TABLE 6 well B2, blocker
[4] = target: pure human iC3b (Complement Technology, A115) (human) (UniProt P01024); assay: sandwich ELISA, capture A209 (Example 5), goat anti-C3-HRP; TABLE 6 well B3, blocker
[5] = target: pure human iC3b (Complement Technology, A115) (human) (UniProt P01024); assay: sandwich ELISA, capture A209 (Example 5), goat anti-C3-HRP; TABLE 6 well C4, 30% vitreous
[6] = target: pure human iC3b (Complement Technology, A115) (human) (UniProt P01024); assay: sandwich ELISA, capture A209 (Example 5), goat anti-C3-HRP; TABLE 6 well C7, 30% vitreous
[7] = target: pure human iC3b (Complement Technology, A115) (human) (UniProt P01024); assay: sandwich ELISA, capture A209 (Example 5), goat anti-C3-HRP; TABLE 6 well D2, 30% vitreous
[8] = target: pure human iC3b (Complement Technology, A115) (human) (UniProt P01024); assay: sandwich ELISA, capture A209 (Example 5), goat anti-C3-HRP; TABLE 6 well D4, 30% vitreous
[9] = target: pure human iC3b (Complement Technology, A115) (human) (UniProt P01024); assay: sandwich ELISA, capture A209 (Example 5), goat anti-C3-HRP; TABLE 6 well D5, 30% vitreous
[10] = target: pure human iC3b (Complement Technology, A115) (human) (UniProt P01024); assay: sandwich ELISA, capture A209 (Example 5), goat anti-C3-HRP; TABLE 6 well D7, 30% vitreous
[11] = target: pure human iC3b (Complement Technology, A115) (human) (UniProt P01024); assay: sandwich ELISA, capture A209 (Example 5), goat anti-C3-HRP; TABLE 6 well E4, 20% vitreous
[12] = target: pure human iC3b (Complement Technology, A115) (human) (UniProt P01024); assay: sandwich ELISA, capture A209 (Example 5), goat anti-C3-HRP; TABLE 6 well E6, 20% vitreous
[13] = target: pure human iC3b (Complement Technology, A115) (human) (UniProt P01024); assay: sandwich ELISA, capture A209 (Example 5), goat anti-C3-HRP; TABLE 6 well F3, 20% vitreous
[14] = target: pure human iC3b (Complement Technology, A115) (human) (UniProt P01024); assay: sandwich ELISA, capture A209 (Example 5), goat anti-C3-HRP; TABLE 6 well F4, 20% vitreous
[15] = target: pure human iC3b (Complement Technology, A115) (human) (UniProt P01024); assay: sandwich ELISA, capture A209 (Example 5), goat anti-C3-HRP; TABLE 6 well F6, 20% vitreous
[16] = target: pure human iC3b (Complement Technology, A115) (human) (UniProt P01024); assay: sandwich ELISA, capture A209 (Example 5), goat anti-C3-HRP; TABLE 6 well F7, 20% vitreous
[17] = target: pure human iC3b (Complement Technology, A115) (human) (UniProt P01024); assay: sandwich ELISA, capture A209 (Example 5), goat anti-C3-HRP; TABLE 6 well G5, 10% vitreous
[18] = target: pure human iC3b (Complement Technology, A115) (human) (UniProt P01024); assay: sandwich ELISA, capture A209 (Example 5), goat anti-C3-HRP; TABLE 6 well G8, 10% vitreous
[19] = target: pure human iC3b (Complement Technology, A115) (human) (UniProt P01024); assay: sandwich ELISA, capture A209 (Example 5), goat anti-C3-HRP; TABLE 6 well G9, 10% vitreous
[20] = target: pure human iC3b (Complement Technology, A115) (human) (UniProt P01024); assay: sandwich ELISA, capture A209 (Example 5), goat anti-C3-HRP; TABLE 6 well H2, 10% vitreous
[21] = target: pure human iC3b (Complement Technology, A115) (human) (UniProt P01024); assay: sandwich ELISA, capture A209 (Example 5), goat anti-C3-HRP; TABLE 6 well H3, 10% vitreous
[22] = target: pure human iC3b (Complement Technology, A115) (human) (UniProt P01024); assay: sandwich ELISA, capture A209 (Example 5), goat anti-C3-HRP; TABLE 6 well H4, 10% vitreous
[23] = target: pure human iC3b (Complement Technology, A115) (human) (UniProt P01024); assay: sandwich ELISA, capture A209 (Example 5), goat anti-C3-HRP; TABLE 6 well H5, 10% vitreous
[24] = target: pure human iC3b (Complement Technology, A115) (human) (UniProt P01024); assay: sandwich ELISA of Example 5, iC3b concentration labeled 0.0125 in 20% human vitreous, duplicate 2
[25] = target: pure human iC3b (Complement Technology, A115) (human) (UniProt P01024); assay: sandwich ELISA of Example 5, iC3b concentration labeled 0.0125 in 20% human vitreous, mean of duplicates less background

Chain of UniProt P01024 (P01024 23-667 limits assumed, chain 1 of 3): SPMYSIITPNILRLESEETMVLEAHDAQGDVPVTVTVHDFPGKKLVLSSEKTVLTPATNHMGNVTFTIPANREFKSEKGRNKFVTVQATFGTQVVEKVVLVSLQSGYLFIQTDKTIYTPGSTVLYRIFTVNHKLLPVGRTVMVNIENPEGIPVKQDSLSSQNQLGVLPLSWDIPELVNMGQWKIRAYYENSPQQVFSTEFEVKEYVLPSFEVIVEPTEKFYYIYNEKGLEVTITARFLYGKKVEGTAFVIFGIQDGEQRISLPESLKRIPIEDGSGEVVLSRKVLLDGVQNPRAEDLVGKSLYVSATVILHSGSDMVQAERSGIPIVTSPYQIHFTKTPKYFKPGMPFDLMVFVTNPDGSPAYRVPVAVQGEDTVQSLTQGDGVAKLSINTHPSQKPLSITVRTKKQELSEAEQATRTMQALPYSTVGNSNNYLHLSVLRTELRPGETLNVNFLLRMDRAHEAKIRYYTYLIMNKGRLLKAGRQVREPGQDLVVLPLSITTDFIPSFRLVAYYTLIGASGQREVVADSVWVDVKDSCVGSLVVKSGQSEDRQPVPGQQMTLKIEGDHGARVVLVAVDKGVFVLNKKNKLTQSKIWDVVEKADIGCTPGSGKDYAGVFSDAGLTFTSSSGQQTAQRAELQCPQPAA
Chain of UniProt P01024 (P01024 749-1303 limits assumed, chain 2 of 3): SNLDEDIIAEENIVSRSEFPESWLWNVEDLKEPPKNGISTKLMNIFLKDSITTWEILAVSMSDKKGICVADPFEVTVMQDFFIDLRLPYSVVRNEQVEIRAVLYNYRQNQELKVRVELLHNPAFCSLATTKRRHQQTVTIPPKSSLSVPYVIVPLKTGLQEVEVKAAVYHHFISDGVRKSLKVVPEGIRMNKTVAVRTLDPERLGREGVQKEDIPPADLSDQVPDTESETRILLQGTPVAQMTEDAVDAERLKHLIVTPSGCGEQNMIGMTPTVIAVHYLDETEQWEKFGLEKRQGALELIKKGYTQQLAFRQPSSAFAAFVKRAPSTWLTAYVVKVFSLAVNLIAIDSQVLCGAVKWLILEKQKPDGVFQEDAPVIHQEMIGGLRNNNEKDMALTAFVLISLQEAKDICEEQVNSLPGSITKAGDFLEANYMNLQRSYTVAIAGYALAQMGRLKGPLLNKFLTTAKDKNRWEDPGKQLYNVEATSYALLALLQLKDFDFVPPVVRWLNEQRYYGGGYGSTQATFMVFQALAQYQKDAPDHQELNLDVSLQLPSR
Chain of UniProt P01024 (P01024 1321-1663 limits assumed, chain 3 of 3): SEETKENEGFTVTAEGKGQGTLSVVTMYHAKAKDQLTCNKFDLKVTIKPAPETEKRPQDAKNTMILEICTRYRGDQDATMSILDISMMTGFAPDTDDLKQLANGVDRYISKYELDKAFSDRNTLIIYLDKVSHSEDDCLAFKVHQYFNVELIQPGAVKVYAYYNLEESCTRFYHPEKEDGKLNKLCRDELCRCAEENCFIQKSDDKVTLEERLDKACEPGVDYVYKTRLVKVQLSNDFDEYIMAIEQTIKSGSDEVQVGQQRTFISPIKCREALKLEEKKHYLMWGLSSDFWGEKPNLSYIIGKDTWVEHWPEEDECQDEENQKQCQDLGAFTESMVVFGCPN

mouse anti-iC3b antibody A209 (Quidel) was tested. Which raw A450 at iC3b 1 ug/ml [1] did it give?
Its raw A450 at iC3b 1 ug/ml is 0.371 OD.

And the raw A450 at iC3b 0.016 ug/ml [2]?
Its raw A450 at iC3b 0.016 ug/ml is 0.043 OD.

And the raw A450 at iC3b 1 ug/ml [3]?
The raw A450 at iC3b 1 ug/ml was 0.344 OD.

And the raw A450 at iC3b 0.5 ug/ml [4]?
Its raw A450 at iC3b 0.5 ug/ml is 0.265 OD.

What about the raw A450 at iC3b 0.25 ug/ml [5] of the same substance?
The raw A450 at iC3b 0.25 ug/ml was 0.391 OD.

And the raw A450 at iC3b 0.031 ug/ml [6]?
Its raw A450 at iC3b 0.031 ug/ml is 0.355 OD.

And the raw A450 at iC3b 1 ug/ml [7]?
Its raw A450 at iC3b 1 ug/ml is 0.453 OD.

What about the raw A450 at iC3b 0.25 ug/ml [8] of the same substance?
The raw A450 at iC3b 0.25 ug/ml was 0.433 OD.

What about the raw A450 at iC3b 0.125 ug/ml [9] of the same substance?
Its raw A450 at iC3b 0.125 ug/ml is 0.391 OD.

What about the raw A450 at iC3b 0.031 ug/ml [10] of the same substance?
Its raw A450 at iC3b 0.031 ug/ml is 0.356 OD.

And the raw A450 at iC3b 0.25 ug/ml [11]?
The raw A450 at iC3b 0.25 ug/ml was 0.411 OD.

What about the raw A450 at iC3b 0.063 ug/ml [12] of the same substance?
The raw A450 at iC3b 0.063 ug/ml was 0.353 OD.

And the raw A450 at iC3b 0.5 ug/ml [13]?
The raw A450 at iC3b 0.5 ug/ml was 0.45 OD.

And the raw A450 at iC3b 0.25 ug/ml [14]?
The raw A450 at iC3b 0.25 ug/ml was 0.435 OD.

And the raw A450 at iC3b 0.063 ug/ml [15]?
The raw A450 at iC3b 0.063 ug/ml was 0.355 OD.

What about the raw A450 at iC3b 0.031 ug/ml [16] of the same substance?
Its raw A450 at iC3b 0.031 ug/ml is 0.333 OD.

And the raw A450 at iC3b 0.125 ug/ml [17]?
The raw A450 at iC3b 0.125 ug/ml was 0.274 OD.

What about the raw A450 at iC3b 0.016 ug/ml [18] of the same substance?
Its raw A450 at iC3b 0.016 ug/ml is 0.227 OD.

What about the raw A450 at iC3b 0.0078 ug/ml [19] of the same substance?
Its raw A450 at iC3b 0.0078 ug/ml is 0.229 OD.

What about the raw A450 at iC3b 1 ug/ml [20] of the same substance?
The raw A450 at iC3b 1 ug/ml was 0.42 OD.

And the raw A450 at iC3b 0.5 ug/ml [21]?
Its raw A450 at iC3b 0.5 ug/ml is 0.316 OD.

And the raw A450 at iC3b 0.25 ug/ml [22]?
The raw A450 at iC3b 0.25 ug/ml was 0.283 OD.

And the raw A450 at iC3b 0.125 ug/ml [23]?
The raw A450 at iC3b 0.125 ug/ml was 0.3 OD.

And the absorbance A450, raw [24]?
The absorbance A450, raw was 0.384 A450.

And the net absorbance A450 (matrix only value 0.328 subtracted) [25]?
The net absorbance A450 (matrix only value 0.328 subtracted) was 0.049 A450.
